The values that follow come from patent publication US20180169199A1.

Test [1] addresses HLA-A*24:02 molecule (product of HLA-A*24:02 gene) (human). The test can be described thus: flow cytometry, acid-stripped C1R-A24 cells + β2m, peptide dilution series, 17A12 staining. On the technique in general: A flow cytometer gives signals particle by particle.
Test [2] has as its target HLA-A*02:01 molecule (product of HLA-A*02:01 gene) (human). Description: flow cytometry, T2 cells + β2m, peptide dilution series, BB7.2 staining.
Test [3] addresses HLA-A*02:06 molecule (product of HLA-A*02:06 gene) (human). The test can be described thus: flow cytometry, RA2.6 cells, peptide dilution series, BB7.2 staining.

Regarding TFDVSILTI (modifications not checked) [peptide … (SEQ ID NO: 2)], the Binding Experiment Data (log Kd) in test [1] is -6.24 log Kd.

YAFNMKSAV (modifications not checked) [peptide … (SEQ ID NO: 13)]: the Binding Experiment Data (log Kd) was -5.09 log Kd in test [2] and -5.02 log Kd in test [3].

In the case of KLLQDFFNG (modifications not checked) [peptide … (SEQ ID NO: 4)], the figures for the Binding Experiment Data (log Kd) in test [2] and in test [3] were -4.96 log Kd and -5.27 log Kd, respectively.

Regarding MVLTKMKEI (modifications not checked) [peptide … (SEQ ID NO: 6)], the figures for the Binding Experiment Data (log Kd) in test [1], in test [2] and in test [3] were -5.82 log Kd, -4.59 log Kd and -5.53 log Kd, respectively.

LLLDVAPLS (modifications not checked) [peptide … (SEQ ID NO: 8)]: the values for the Binding Experiment Data (log Kd) in test [2] and in test [3] were -6.06 log Kd and -6.17 log Kd, respectively.

For AMTKDNNLL (modifications not checked) [peptide … (SEQ ID NO: 9)], the Binding Experiment Data (log Kd) in test [1] is -5.49 log Kd; in test [2] it was -5.56 log Kd; in test [3] it was -4.28 log Kd.

As for VLVGGSTRI (modifications not checked) [peptide … (SEQ ID NO: 5)], the Binding Experiment Data (log Kd) in test [1] is -6.17 log Kd; in test [2], -4.86 log Kd; in test [3], -5.07 log Kd.

For the molecule YGAAVQAAI (modifications not checked) [peptide … (SEQ ID NO: 7)], the Binding Experiment Data (log Kd) in test [1] was -5.5 log Kd; in test [2], -4.9 log Kd; in test [3] it was -5.37 log Kd.

For the molecule NQPGVLIQV (modifications not checked) [peptide … (SEQ ID NO: 14)], the Binding Experiment Data (log Kd) in test [2] is -5.91 log Kd; in test [3], -6.42 log Kd.

Regarding AQIHDLVLV (modifications not checked) [peptide … (SEQ ID NO: 12)], the Binding Experiment Data (log Kd) in test [2] is -6.15 log Kd; in test [3], -6.45 log Kd.

Take SVTNAVITV (modifications not checked) [peptide … (SEQ ID NO: 15)]: the figures for the Binding Experiment Data (log Kd) in test [1], in test [2] and in test [3] were -4.37 log Kd, -4.76 log Kd and -5.59 log Kd, respectively.

As to FYPEEISSM (modifications not checked) [peptide … (SEQ ID NO: 3)], the Binding Experiment Data (log Kd) in test [1] is -7.66 log Kd.

In the case of ITRARFEEL (modifications not checked) [peptide … (SEQ ID NO: 10)], the Binding Experiment Data (log Kd) in test [1] is -5.21 log Kd; in test [2], -4.33 log Kd; in test [3], -5.58 log Kd.

On to NLLGRFELS (modifications not checked) [peptide … (SEQ ID NO: 11)], for which the figures for the Binding Experiment Data (log Kd) in test [2] and in test [3] were -4.56 log Kd and -5.18 log Kd, respectively.
